Laboratory results reported in patent publication US20150315260A1 (Sanofi, published 2015).
Starred links: 1 amine or outer side, 2 acyl side, 3 side chain; linkers in the order of their positions; H or OH if unused. Non-standard residues stand in square brackets, D forms with d. Groups on a side chain read outwards from the residue. No end group written: not given here. *: point of attachment. γGlu = O=C(O)[C@H](CCC(=O)[*:2])N[*:1]; Stearoyl = CCCCCCCCCCCCCCCCCC(=O)*; Palmitoyl = CCCCCCCCCCCCCCCC(=O)*; Aib = CC(C)(N)C(=O)O

B1: exendin-4 derivative SEQ ID NO: 12 (peptide)
peptide: H[Aib]QGTFTSDLSKQK([γGlu-γGlu-Palmitoyl])DEQRAKLFIEWL[Aib]S[dA]GPSSGAPPPS-NH2
modifications: N-terminus assumed
SMILES: CCCCCCCCCCCCCCCC(=O)N[C@@H](CCC(=O)N[C@@H](CCC(=O)NCCCC[C@H](NC(=O)[C@H](CCC(N)=O)NC(=O)[C@H](CCCCN)NC(=O)[C@H](CO)NC(=O)[C@H](CC(C)C)NC(=O)[C@H](CC(=O)O)NC(=O)[C@H](CO)NC(=O)[C@@H](NC(=O)[C@H](Cc1ccccc1)NC(=O)[C@@H](NC(=O)CNC(=O)[C@H](CCC(N)=O)NC(=O)C(C)(C)NC(=O)[C@@H](N)Cc1c[nH]cn1)[C@@H](C)O)[C@@H](C)O)C(=O)N[C@@H](CC(=O)O)C(=O)N[C@@H](CCC(=O)O)C(=O)N[C@@H](CCC(N)=O)C(=O)N[C@@H](CCCNC(=N)N)C(=O)N[C@@H](C)C(=O)N[C@@H](CCCCN)C(=O)N[C@@H](CC(C)C)C(=O)N[C@@H](Cc1ccccc1)C(=O)N[C@H](C(=O)N[C@@H](CCC(=O)O)C(=O)N[C@@H](Cc1c[nH]c2ccccc12)C(=O)N[C@@H](CC(C)C)C(=O)NC(C)(C)C(=O)N[C@@H](CO)C(=O)N[C@H](C)C(=O)NCC(=O)N1CCC[C@H]1C(=O)N[C@@H](CO)C(=O)N[C@@H](CO)C(=O)NCC(=O)N[C@@H](C)C(=O)N1CCC[C@H]1C(=O)N1CCC[C@H]1C(=O)N1CCC[C@H]1C(=O)N[C@@H](CO)C(N)=O)[C@@H](C)CC)C(=O)O)C(=O)O
B2: exendin-4 derivative SEQ ID NO: 8 (peptide)
peptide: H[Aib]QGTFTSDLSKQK([γGlu-γGlu-Palmitoyl])DEQRAKLFIEWL[Aib]AGGPSSGAPPPS-NH2
modifications: N-terminus assumed
SMILES: CCCCCCCCCCCCCCCC(=O)N[C@@H](CCC(=O)N[C@@H](CCC(=O)NCCCC[C@H](NC(=O)[C@H](CCC(N)=O)NC(=O)[C@H](CCCCN)NC(=O)[C@H](CO)NC(=O)[C@H](CC(C)C)NC(=O)[C@H](CC(=O)O)NC(=O)[C@H](CO)NC(=O)[C@@H](NC(=O)[C@H](Cc1ccccc1)NC(=O)[C@@H](NC(=O)CNC(=O)[C@H](CCC(N)=O)NC(=O)C(C)(C)NC(=O)[C@@H](N)Cc1c[nH]cn1)[C@@H](C)O)[C@@H](C)O)C(=O)N[C@@H](CC(=O)O)C(=O)N[C@@H](CCC(=O)O)C(=O)N[C@@H](CCC(N)=O)C(=O)N[C@@H](CCCNC(=N)N)C(=O)N[C@@H](C)C(=O)N[C@@H](CCCCN)C(=O)N[C@@H](CC(C)C)C(=O)N[C@@H](Cc1ccccc1)C(=O)N[C@H](C(=O)N[C@@H](CCC(=O)O)C(=O)N[C@@H](Cc1c[nH]c2ccccc12)C(=O)N[C@@H](CC(C)C)C(=O)NC(C)(C)C(=O)N[C@@H](C)C(=O)NCC(=O)NCC(=O)N1CCC[C@H]1C(=O)N[C@@H](CO)C(=O)N[C@@H](CO)C(=O)NCC(=O)N[C@@H](C)C(=O)N1CCC[C@H]1C(=O)N1CCC[C@H]1C(=O)N1CCC[C@H]1C(=O)N[C@@H](CO)C(N)=O)[C@@H](C)CC)C(=O)O)C(=O)O
B3: exendin-4 derivative SEQ ID NO: 9 (peptide)
peptide: H[Aib]QGTFTSDLSKQK([γGlu-Stearoyl])DEQRAKLFIEWL[Aib]AGGPSSGAPPPS-NH2
modifications: N-terminus assumed
SMILES: CCCCCCCCCCCCCCCCCC(=O)N[C@@H](CCC(=O)NCCCC[C@H](NC(=O)[C@H](CCC(N)=O)NC(=O)[C@H](CCCCN)NC(=O)[C@H](CO)NC(=O)[C@H](CC(C)C)NC(=O)[C@H](CC(=O)O)NC(=O)[C@H](CO)NC(=O)[C@@H](NC(=O)[C@H](Cc1ccccc1)NC(=O)[C@@H](NC(=O)CNC(=O)[C@H](CCC(N)=O)NC(=O)C(C)(C)NC(=O)[C@@H](N)Cc1c[nH]cn1)[C@@H](C)O)[C@@H](C)O)C(=O)N[C@@H](CC(=O)O)C(=O)N[C@@H](CCC(=O)O)C(=O)N[C@@H](CCC(N)=O)C(=O)N[C@@H](CCCNC(=N)N)C(=O)N[C@@H](C)C(=O)N[C@@H](CCCCN)C(=O)N[C@@H](CC(C)C)C(=O)N[C@@H](Cc1ccccc1)C(=O)N[C@H](C(=O)N[C@@H](CCC(=O)O)C(=O)N[C@@H](Cc1c[nH]c2ccccc12)C(=O)N[C@@H](CC(C)C)C(=O)NC(C)(C)C(=O)N[C@@H](C)C(=O)NCC(=O)NCC(=O)N1CCC[C@H]1C(=O)N[C@@H](CO)C(=O)N[C@@H](CO)C(=O)NCC(=O)N[C@@H](C)C(=O)N1CCC[C@H]1C(=O)N1CCC[C@H]1C(=O)N1CCC[C@H]1C(=O)N[C@@H](CO)C(N)=O)[C@@H](C)CC)C(=O)O
B4: exendin-4 derivative SEQ ID NO: 11 (peptide)
peptide: H[Aib]QGTFTSDLSKQK([γGlu-Palmitoyl])DEQRAKLFIEWL[Aib]A[dA]GPSSGAPPPS-NH2
modifications: N-terminus assumed
SMILES: CCCCCCCCCCCCCCCC(=O)N[C@@H](CCC(=O)NCCCC[C@H](NC(=O)[C@H](CCC(N)=O)NC(=O)[C@H](CCCCN)NC(=O)[C@H](CO)NC(=O)[C@H](CC(C)C)NC(=O)[C@H](CC(=O)O)NC(=O)[C@H](CO)NC(=O)[C@@H](NC(=O)[C@H](Cc1ccccc1)NC(=O)[C@@H](NC(=O)CNC(=O)[C@H](CCC(N)=O)NC(=O)C(C)(C)NC(=O)[C@@H](N)Cc1c[nH]cn1)[C@@H](C)O)[C@@H](C)O)C(=O)N[C@@H](CC(=O)O)C(=O)N[C@@H](CCC(=O)O)C(=O)N[C@@H](CCC(N)=O)C(=O)N[C@@H](CCCNC(=N)N)C(=O)N[C@@H](C)C(=O)N[C@@H](CCCCN)C(=O)N[C@@H](CC(C)C)C(=O)N[C@@H](Cc1ccccc1)C(=O)N[C@H](C(=O)N[C@@H](CCC(=O)O)C(=O)N[C@@H](Cc1c[nH]c2ccccc12)C(=O)N[C@@H](CC(C)C)C(=O)NC(C)(C)C(=O)N[C@@H](C)C(=O)N[C@H](C)C(=O)NCC(=O)N1CCC[C@H]1C(=O)N[C@@H](CO)C(=O)N[C@@H](CO)C(=O)NCC(=O)N[C@@H](C)C(=O)N1CCC[C@H]1C(=O)N1CCC[C@H]1C(=O)N1CCC[C@H]1C(=O)N[C@@H](CO)C(N)=O)[C@@H](C)CC)C(=O)O
B5: exendin-4 derivative SEQ ID NO: 10 (peptide)
peptide: H[Aib]QGTFTSDLSKQK([γGlu-Palmitoyl])DEQRAKLFIEWL[Aib]AGGPSSGAPPPS-NH2
modifications: N-terminus assumed
SMILES: CCCCCCCCCCCCCCCC(=O)N[C@@H](CCC(=O)NCCCC[C@H](NC(=O)[C@H](CCC(N)=O)NC(=O)[C@H](CCCCN)NC(=O)[C@H](CO)NC(=O)[C@H](CC(C)C)NC(=O)[C@H](CC(=O)O)NC(=O)[C@H](CO)NC(=O)[C@@H](NC(=O)[C@H](Cc1ccccc1)NC(=O)[C@@H](NC(=O)CNC(=O)[C@H](CCC(N)=O)NC(=O)C(C)(C)NC(=O)[C@@H](N)Cc1c[nH]cn1)[C@@H](C)O)[C@@H](C)O)C(=O)N[C@@H](CC(=O)O)C(=O)N[C@@H](CCC(=O)O)C(=O)N[C@@H](CCC(N)=O)C(=O)N[C@@H](CCCNC(=N)N)C(=O)N[C@@H](C)C(=O)N[C@@H](CCCCN)C(=O)N[C@@H](CC(C)C)C(=O)N[C@@H](Cc1ccccc1)C(=O)N[C@H](C(=O)N[C@@H](CCC(=O)O)C(=O)N[C@@H](Cc1c[nH]c2ccccc12)C(=O)N[C@@H](CC(C)C)C(=O)NC(C)(C)C(=O)N[C@@H](C)C(=O)NCC(=O)NCC(=O)N1CCC[C@H]1C(=O)N[C@@H](CO)C(=O)N[C@@H](CO)C(=O)NCC(=O)N[C@@H](C)C(=O)N1CCC[C@H]1C(=O)N1CCC[C@H]1C(=O)N1CCC[C@H]1C(=O)N[C@@H](CO)C(N)=O)[C@@H](C)CC)C(=O)O

Experiments:
Assay in all cases: cell-based or functional assay
[1] = biological target: human GLP-1 receptor (human, UniProt P43220 24-463)
[2] = biological target: human glucagon receptor (human, UniProt P47871 26-477)
[3] = biological target: T1, human GIP receptor (human, UniProt P48546 22-466)
T1 sequence (looked up): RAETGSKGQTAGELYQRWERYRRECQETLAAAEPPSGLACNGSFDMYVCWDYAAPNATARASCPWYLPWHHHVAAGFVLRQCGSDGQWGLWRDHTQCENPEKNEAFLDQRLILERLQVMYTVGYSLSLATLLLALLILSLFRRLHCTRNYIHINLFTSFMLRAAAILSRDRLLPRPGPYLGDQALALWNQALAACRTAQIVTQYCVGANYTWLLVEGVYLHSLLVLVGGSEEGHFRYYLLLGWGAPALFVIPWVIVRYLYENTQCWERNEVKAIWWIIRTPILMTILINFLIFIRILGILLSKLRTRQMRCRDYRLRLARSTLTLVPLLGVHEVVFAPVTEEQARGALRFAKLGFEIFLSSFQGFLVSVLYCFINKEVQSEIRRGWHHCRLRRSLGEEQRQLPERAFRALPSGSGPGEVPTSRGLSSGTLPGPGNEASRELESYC

Sequence of human glucagon receptor (P47871 26-477): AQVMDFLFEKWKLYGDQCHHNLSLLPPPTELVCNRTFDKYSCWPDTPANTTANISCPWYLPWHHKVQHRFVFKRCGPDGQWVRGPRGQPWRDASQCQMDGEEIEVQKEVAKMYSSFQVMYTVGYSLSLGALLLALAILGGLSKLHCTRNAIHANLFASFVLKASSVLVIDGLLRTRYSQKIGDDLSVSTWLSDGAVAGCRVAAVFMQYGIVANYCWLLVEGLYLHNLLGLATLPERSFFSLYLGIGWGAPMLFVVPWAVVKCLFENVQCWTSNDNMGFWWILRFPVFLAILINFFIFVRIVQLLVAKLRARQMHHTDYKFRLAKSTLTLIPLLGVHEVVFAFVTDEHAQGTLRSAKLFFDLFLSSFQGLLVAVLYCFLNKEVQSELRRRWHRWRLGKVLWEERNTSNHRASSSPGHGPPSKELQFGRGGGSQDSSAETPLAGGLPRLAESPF

Binder | EC50 hGLP-1R (cAMP formation) [1] [nM] | EC50 hGlucagon-R (cAMP formation) [2] [nM] | EC50 hGIP-R (cAMP formation) [3] [nM]
B1 | 0.0037 | 0.13 | 8.29
H[Aib]QGTFTSDLSKQK([γGlu-γGlu-Palmitoyl])DEQRAKLFIEWL[Aib]KGGPSSGAPPPS-NH2 [exendin-4 derivative SEQ ID NO: 15] | – | 0.0426 | 1.85
B2 | 0.0023 | 0.0281 | 2.14
B3 | 0.0064 | 0.0154 | 1.16
B4 | 0.0103 | 0.261 | 13.4
B5 | 0.0035 | 0.0524 | 0.89
H[Aib]QGTFTSDLSKQK([γGlu-γGlu-Palmitoyl])DEQRAKLFIEWL[Aib]SGGPSSGAPPPS-NH2 [exendin-4 derivative SEQ ID NO: 13] | – | 0.0228 | 2.39
